Target: T1, RelE (UniProt P0C077 1-95)
T1 sequence: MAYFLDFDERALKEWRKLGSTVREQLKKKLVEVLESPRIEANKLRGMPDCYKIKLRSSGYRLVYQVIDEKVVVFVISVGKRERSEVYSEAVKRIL
Experiment: intrinsic protein fluorescence

B1: unmodified mRNA (ssRNA)
RNA: GGCAAGGAGGUAAAAAUGUAGAAAAACAAU
  binding result: binds

Source: paper PMC7260706
